# Measurements taken from the RNAGym collection of RNA variant scans (doi:10.1093/molbev/msab373).
# B1: Azoarcus group I ribozyme (parent)
# chain: GUGCCUUGCGCCGGGAAACCACGCAAGGGAUGGUGUCAAAUUCGGCGAAACCUAAGCGCCCGCCCGGGCGUAUGGCAACGCCGAGCCAAGCUUCGGCGCCUGCGCCGAUGAAGGUGUAGAGACUAGACGGCACCCACCUAAGGCAAACGCUAUGGUGAAGGCAUAGUCCAGGGAGUGGCGAAAGUCACACAAACCGG
# Variants of: B1
# Assay: reverse-splicing fitness (ratio to wild type); higher = more active; in vitro selection; Mg2+ level not given
# Summary of the method: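 An in vitro group I ribozyme library with randomized positions was T7-transcribed and gel-purified. In triplicate, 10 pmol RNA in EPPS pH 7.5 was reacted with 50 pmoles of a 30-nt RNA substrate for 1 h at 37 °C across several added MgCl2 levels (1–48 mM), then stopped with EDTA. Products were reverse transcribed from a substrate-complementary primer, PCR-amplified and sequenced (HiSeq 4000). Fitness is a variant's read proportion after selection over that before, normalised to wild type.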
row,Variant,reverse-splicing fitness
1,C82A A120U A145G C150U C169G U176A,0.00591
2,C82A A120U A145U C150G C169U U176A,0.0025
3,C82A A120U A145U C150G C169U U176G,0.0021
4,C82A A120U A145U C150G C169U U176C,0.00262
5,C82A A145C C169A,0.00701
6,C82A A145C C169U,0.0141
7,C82A A145C C169G,0.0105
8,C82A A120U A145U C150G U176A,0.00533
9,C82A A120U A145U C150G U176G,0.00318
10,C82A A120U A145U C150G U176C,0.00823
11,C82A A145C C150U U176A,0.101
12,C82A A145C C150U U176G,0.0335
13,C82A A145C C150U U176C,0.113
14,C82A A145G C150A,0.0995
15,C82A A145G C150G,0.0693
16,C82A A145C C150G C169A U176A,0.00836
17,C82A A145C C150G C169A U176G,0.00669
18,C82A A145C C150G C169A U176C,0.00619
19,C82A A120U C150U U176G,0.00609
20,C82A A120U C150U U176A,0.0194
21,C82A A120U C150U U176C,0.0352
22,C82A A120U A145G C169A U176A,0.00307
23,C82A A120U A145G C169A U176C,0.00257
24,C82A A120U A145G C169A U176G,0.00129

row,Variant,reverse-splicing fitness
1,C82A A120U A145U C150U C169A U176A,0.00275
2,C82A A120U A145U C150U C169A U176G,0.00171
3,C82A A120U A145U C150U C169A U176C,0.00272
4,C82A A120U A145U C150G C169G,0.00265
5,C82A A120U A145U C150G C169U,0.00321
6,C82A A120U A145U C150G C169A,0.00305
7,C82A A120U C150A C169G U176A,0.00593
8,C82A A120U C150A C169G U176C,0.0032
9,C82A A120U C150A C169G U176G,0.00162
10,C82A A120U A145C C150G C169A U176G,0.00213
11,C82A A120U A145C C150G C169A U176A,0.00254
12,C82A A120U A145C C150G C169A U176C,0.00155
13,C82A A120U C150G C169A U176A,0.00498
14,C82A A120U C150G C169A U176C,0.00411
15,C82A A120U C150G C169A U176G,0.00312
16,C82A A145G C150A C169U U176A,0.0138
17,C82A A145G C150A C169U U176G,0.00699
18,C82A A145G C150A C169U U176C,0.0137
19,C82A A145C C150G U176G,0.00808
20,C82A A145C C150G U176A,0.0383
21,C82A A145C C150G U176C,0.0535
22,C82A A120U A145U,0.148
23,C82A A120U A145G,0.142
24,C82A A120U A145U C150A C169A U176G,0.00186

row,Variant,reverse-splicing fitness
1,C82A A120U A145U C150A C169A U176C,0.00188
2,C82A A120U A145U C150A C169A U176A,0.0022
3,C82A A120U A145U C150A C169G,0.00217
4,C82A A120U A145U C150A C169A,0.00213
5,C82A A120U A145U C150A C169U,0.00267
6,C82A A120U A145U C150U,0.0889
7,C82A A120U A145U C150G,0.0166
8,C82A A120U A145U C150A,0.0126
9,C82A A120U A145U C150U C169G U176G,0.00197
10,C82A A120U A145U C150U C169G U176C,0.00288
11,C82A A120U A145U C150U C169G U176A,0.00257
12,C82A A120U A145U C150U C169G,0.00375
13,C82A A120U A145U C150U C169U,0.00442
14,C82A A120U A145U C150U C169A,0.00226
15,C82A A120U A145U C169U U176G,0.00154
16,C82A A120U A145U C169U U176C,0.00276
17,C82A A120U A145U C169U U176A,0.00202
18,C82A A145C C150G C169A,0.00909
19,C82A A145C C150G C169U,0.00817
20,C82A A145C C150G C169G,0.00828
21,C82A A120U A145C C150U C169U,0.00313
22,C82A A120U A145C C150U C169A,0.00197
23,C82A A120U A145C C150U C169G,0.00276
24,C82A A120U C150U C169A U176A,0.00392

row,Variant,reverse-splicing fitness
1,C82A A120U C150U C169A U176C,0.00357
2,C82A A120U C150U C169A U176G,0.00226
3,C82A A145C C150U C169A,0.00801
4,C82A A145C C150U C169G,0.00747
5,C82A A145C C150U C169U,0.0111
6,C82A A120U A145U C169G U176G,0.00116
7,C82A A120U A145U C169G U176A,0.00173
8,C82A A120U A145U C169G U176C,0.00254
9,C82A A145C C150A U176G,0.0123
10,C82A A145C C150A U176C,0.0306
11,C82A A145C C150A U176A,0.0316
12,C82A A120U A145G C150A C169A U176C,0.00397
13,C82A A120U A145G C150A C169A U176A,0.0062
14,C82A A120U A145G C150A C169A U176G,0.00236
15,C82A A120U C169A U176A,0.00254
16,C82A A120U C169A U176G,0.00137
17,C82A A120U C169A U176C,0.00197
18,C82A A120U A145C C150G,0.0172
19,C82A A120U A145C C150U,0.0294
20,C82A A120U C150A C169A,0.0042
21,C82A A120U C150A C169G,0.00417
22,C82A A120U C150A C169U,0.00372
23,C82A A145G C150A C169A,0.0108
24,C82A A145G C150A C169U,0.0112

row,Variant,reverse-splicing fitness
1,C82A A145G C150A C169G,0.00939
2,C82A A120U A145C C150U C169A U176A,0.00195
3,C82A A120U A145C C150U C169A U176C,0.00251
4,C82A A120U A145C C150U C169A U176G,0.002
5,C82A A120U A145C C150G C169A,0.00259
6,C82A A120U A145C C150G C169U,0.00298
7,C82A A120U A145C C150G C169G,0.0026
8,C82A A120U A145U C150U U176C,0.0364
9,C82A A120U A145U C150U U176A,0.0232
10,C82A A120U A145U C150U U176G,0.0066
11,C82A A145C C150U C169G U176G,0.00628
12,C82A A145C C150U C169G U176C,0.0113
13,C82A A145C C150U C169G U176A,0.0196
14,C82A A145C C150G C169U U176G,0.00534
15,C82A A145C C150G C169U U176A,0.00823
16,C82A A145C C150G C169U U176C,0.00749
17,C82A A120U A145C C150A C169U U176C,0.00188
18,C82A A120U A145C C150A C169U U176A,0.00259
19,C82A A120U A145C C150A C169U U176G,0.00218
20,C82A A145G C150A C169G U176C,0.0281
21,C82A A145G C150A C169G U176A,0.0164
22,C82A A145G C150A C169G U176G,0.0061
23,C82A A120U A145G U176A,0.0348
24,C82A A120U A145G U176C,0.0599

row,Variant,reverse-splicing fitness
1,C82A A120U A145G U176G,0.0073
2,C82A A145C C169A U176A,0.0087
3,C82A A145C C169A U176G,0.00487
4,C82A A145C C169A U176C,0.00644
5,C82A A120U C150U C169U,0.00643
6,C82A A120U C150U C169A,0.00439
7,C82A A120U C150U C169G,0.00546
8,C82A A145G C150G C169A,0.00856
9,C82A A145C C150A,0.0312
10,C82A A145C C150U,0.151
11,C82A A145C C150G,0.0739
12,C82A A145C U176C,0.44
13,C82A A145C U176A,0.346
14,C82A A145C U176G,0.129
15,C82A A120U A145C C169G U176G,0.00139
16,C82A A120U A145C C169G U176C,0.00235
17,C82A A120U A145C C169G U176A,0.00227
18,C82A A145G C150A C169A U176A,0.0195
19,C82A A145G C150A C169A U176C,0.0221
20,C82A A145G C150A C169A U176G,0.00695
21,C82A A120U A145G C150U C169A,0.00691
22,C82A A120U A145G C150U C169U,0.00646
23,C82A A120U A145G C150U C169G,0.00684
24,C82A A120U A145G C150G U176C,0.0117

row,Variant,reverse-splicing fitness
1,C82A A120U A145G C150G U176G,0.00433
2,C82A A120U A145G C150G U176A,0.00758
3,C82A A120U A145G C150G C169U U176G,0.00419
4,C82A A120U A145G C150G C169U U176A,0.00865
5,C82A A120U A145G C150G C169U U176C,0.00657
6,C82A A120U C150A C169A U176A,0.00388
7,C82A A120U C150A C169A U176C,0.00234
8,C82A A120U C150A C169A U176G,0.0024
9,C82A A120U A145G C150A U176G,0.00391
10,C82A A120U A145G C150A U176A,0.0103
11,C82A A120U A145G C150A U176C,0.0142
12,C82A A120U A145C C150A U176C,0.0051
13,C82A A120U A145C C150A U176A,0.00439
14,C82A A120U A145C C150A U176G,0.00246
15,C82A A120U A145U C169G,0.00509
16,C82A A120U A145U C169U,0.0055
17,C82A A120U A145U C169A,0.00202
18,C82A A120U A145G C150U,0.116
19,C82A A120U A145G C150A,0.0231
20,C82A A120U A145G C150G,0.0192
21,C82A A120U A145U U176C,0.0582
22,C82A A120U A145U U176A,0.036
23,C82A A120U A145U U176G,0.01
